# Results published in PMC8142254, “The mycobacterial proteasomal ATPase Mpa forms a gapped ring to engage the 20S proteasome” (The Journal of Biological Chemistry, 2021).
# B1: Mycobacterium tuberculosis proteasomal ATPase Mpa, full-length (1–609) (enzyme)
# chain: MGESERSEAFGIPRDSPLSSGDAAELEQLRREAAVLREQLENAVGSHAPTRSARDIHQLEARIDSLAARNSKLMETLKEARQQLLALREEVDRLGQPPSGYGVLLATHDDDTVDVFTSGRKMRLTCSPNIDAASLKKGQTVRLNEALTVVEAGTFEAVGEISTLREILADGHRALVVGHADEERVVWLADPLIAEDLPDGLPEALNDDTRPRKLRPGDSLLVDTKAGYAFERIPKAEVEDLVLEEVPDVSYADIGGLSRQIEQIRDAVELPFLHKELYREYSLRPPKGVLLYGPPGCGKTLIAKAVANSLAKKMAEVRGDDAHEAKSYFLNIKGPELLNKFVGETERHIRLIFQRAREKASEGTPVIVFFDEMDSIFRTRGTGVSSDVETTVVPQLLSEIDGVEGLENVIVIGASNREDMIDPAILRPGRLDVKIKIERPDAEAAQDIYSKYLTEFLPVHADDLAEFDGDRSACIKAMIEKVVDRMYAEIDDNRFLEVTYANGDKEVMYFKDFNSGAMIQNVVDRAKKNAIKSVLETGQPGLRIQHLLDSIVDEFAENEDLPNTTNPDDWARISGKKGERIVYIRTLVTGKSSSASRAIDTESNLGQYL
# notes: Mpa (mycobacterial proteasome ATPase), Mycobacterium tuberculosis, full-length, residues 1-609; Homohexamer; In the cryo-EM model the coiled-coil domains and two of the six AAA domains are not resolved; also called mycobacterial proteasome ATPase; WT Mpa
# How the values were obtained:
# [1] = target: Mycobacterium tuberculosis proteasomal ATPase Mpa, full-length (1–609) (Mycobacterium tuberculosis) (UniProt P9WQN5); test: not stated; stoichiometry of the in vitro assembled Pup–FabD:Mpa complex; how it was found is not told
# cryo-EM structure = target: the molecule itself; test: cryo-EM structure
Molecule,stoichiometry N (Pup–FabD per Mpa hexamer) [1],stoichiometry N (cryo-EM structure)
Pup–FabD (Pup translationally fused to the N terminus of malonyl CoA-acyl carrier protein transacylase),1,–
B1,–,6
